From US20100003258A1 (AVEO PHARMACEUTICALS, published 2010)

Legend:
[1] = target: T1, recombinant human FGFR3 IIIb Fc fusion protein (human, UniProt P22607-2 23-377, limits assumed); experiment: SPR (Biacore T100), antibody captured on anti-mouse Ig, rhFGFR3 IIIb Fc as analyte, 25 C
T1 construct: Bought reagent; the IIIb splice isoform is meant; also called rhFGFR3 IIIb Fc; hFGFR3 IIIb; not shown: Fc fragment (removable by Factor Xa, detected with anti-human IgG)
T1 sequence (looked up): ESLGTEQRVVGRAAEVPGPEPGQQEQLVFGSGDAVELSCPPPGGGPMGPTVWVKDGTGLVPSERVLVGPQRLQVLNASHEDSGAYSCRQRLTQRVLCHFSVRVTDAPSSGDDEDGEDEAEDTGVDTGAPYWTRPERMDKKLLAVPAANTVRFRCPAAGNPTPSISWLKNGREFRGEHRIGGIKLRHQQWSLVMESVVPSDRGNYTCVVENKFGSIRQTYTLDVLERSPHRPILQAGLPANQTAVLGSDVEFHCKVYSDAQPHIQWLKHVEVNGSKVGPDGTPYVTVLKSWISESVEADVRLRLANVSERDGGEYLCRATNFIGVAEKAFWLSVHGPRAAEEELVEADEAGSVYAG
Procedure: (§1) The binding affinities and kinetics of interaction of the monoclonal antibodies (15D8, 27H2, 2G4, and 4E7(7D12)) produced in Example 1 against recombinant human FGFR3 (IIIb and IIIc isoforms) Fc fusion protein (rhFGFR3 IIIb Fc or rhFGFR3 IIIc Fc) were measured by surface plasmon resonance using a Biacore™ T100 (Biacore) instrument.
(§2) Rabbit anti-mouse immunoglobulins (Biacore, Catalog No. BR-1005-14) were immobilized on carboxymethylated dextran CM4 sensor chips (Biacore, Catalog No. BR-1005-34) by amine coupling (Biacore, Catalog No. BR-1000-50) using a standard coupling protocol according to manufacturer's instructions.
(§3) The antibodies were captured in an individual flow cell at a flow rate of 10 μl/min. Injection time was varied for each antibody to yield approximately 40-50 RU of antibody captured for each cycle. Buffer or rhFGFR3 IIIb Fc (R&D Systems, Catalog No. 1264-FR-050) or rhFGFR3 IIIc Fc (R&D Systems, Catalog No. 766-FR-050) diluted in running buffer was injected sequentially over a reference surface (no antibody captured) and the active surface (antibody to be tested) for 300 sec at 60 μl/min. The dissociation phase was monitored for 30 minutes. The surface was then regenerated with two 60-seconds injection of 10 mM Glycine-HCl, pH 1.7 (made from Glycine pH 1.5 (Biacore, Catalog No. BR-1003-54) and pH 2.0 (Biacore, Catalog No. BR-1003-55)) at a flow rate of 60 μl/min. rhFGFR3 Fc concentrations tested were 0.62 nM to 40 nM.

[2] = target: T2, recombinant human FGFR3 IIIc Fc fusion protein (human, UniProt P22607 23-375); experiment: SPR (Biacore T100), antibody captured on anti-mouse Ig, rhFGFR3 IIIc Fc as analyte, 37 C
T2 construct: Bought reagent; also called rhFGFR3 IIIc Fc; not shown: Fc fragment (removable by Factor Xa)
T2 sequence (looked up): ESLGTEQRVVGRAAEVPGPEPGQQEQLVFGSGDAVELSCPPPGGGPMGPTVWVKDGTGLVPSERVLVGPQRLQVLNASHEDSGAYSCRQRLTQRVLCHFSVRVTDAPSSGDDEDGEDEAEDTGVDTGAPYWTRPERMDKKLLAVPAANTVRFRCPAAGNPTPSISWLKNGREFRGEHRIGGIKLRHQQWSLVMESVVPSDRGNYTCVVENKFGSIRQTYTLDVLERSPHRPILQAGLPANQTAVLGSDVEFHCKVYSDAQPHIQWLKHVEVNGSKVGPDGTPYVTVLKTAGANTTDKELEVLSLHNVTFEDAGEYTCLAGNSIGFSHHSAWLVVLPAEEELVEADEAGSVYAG
Procedure: as §1, §2, §3

[3] = target: T1, recombinant human FGFR3 IIIb Fc fusion …; experiment: ECL competition assay: inhibition of rhFGFR3 IIIb Fc binding to coated FGF1 (competitor FGF1); 15D8 IgG1, not Fab; average of n = 3
Procedure: The antibodies were tested by ECL (Electrochemiluminescence) assay for inhibition of hFGFR3 IIIB binding to FGF-1. […] The plates then were washed 3 times with PBS and blocked with 200 μl of PBS containing 5% BSA (Sera Care Life Sciences, Catalog No. AP-4510-80) and 5 μg/mL heparin (Sigma, Catalog No. H4784) for 1 hour at room temperature. The antibodies (concentration range: 0.029-30 μg/mL) were incubated for 1 hour at room temperature with 1.7 μg/mL rhFGFR3 IIIb Fc (R&D Systems, Catalog No. 1264-FR-050) and 5 μg/mL heparin. After washing the plates 3 times with PBS, 25 μl of the antibody-receptor mixture was added to the plates for another hour at room temperature with agitation. The plates were washed three times with PBS and incubated with 25 μl of 1 μg/mL ST-anti-human IgG antibody (Meso Scale Discovery, Catalog No. R32AJ-1) for 1 hour at room temperature with agitation. The plates then were washed 3 times with PBS, and 150 μl of 1× read buffer (Meso Scale Discovery, Catalog No. R92TC-1) was added to each well before the plates were analyzed on a Sector Imager 2400 (Meso Scale Discovery) instrument.

B1: anti-FGFR3 monoclonal antibody 15D8 (antibody, mouse IgG1, kappa)
heavy: EIQLQQSGPELVKPGASVKVSCKASGYAFTSYNMYWVKQSHGKSLEWIGYIDPYNGGTSYNQKFKGKATLTVDKSSSTAYMHLNSLTSEDSAVYYCAREGGNYEAWFAYWGQGTLVTVSAAKTTPPSVYPLAPGSAAQTNSMVTLGCLVKGYFPEPVTVTWNSGSLSSGVHTFPAVLQSDLYTLSSSVTVPSSTWPSETVTCNVAHPASSTKVDKKIVPRDCGCKPCICTVPEVSSVFIFPPKPKDVLTITLTPKVTCVVVDISKDDPEVQFSWFVDDVEVHTAQTQPREEQFNSTFRSVSELPIMHQDWLNGKEFKCRVNSAAFPAPIEKTISKTKGRPKAPQVYTIPPPKEQMAKDKVSLTCMITDFFPEDITVEWQWNGQPAENYKNTQPIMDTDGSYFVYSKLNVQKSNWEAGNTFTCSVLHEGLHNHHTEKSLSHSPGK
light: QIVLTQSPALMSASPGEKVTMTCSASSSVSYMYWYQQKPRSSPKPWIYLTSYLASGVPARFSGSGSGTSYSLTISSMEAEDAATYYCQQWSSYPLTFGAGTKLELKRADAAPTVSIFPPSSEQLTSGGASVVCFLNNFYPKDINVKWKIDGSERQNGVLNSWTDQDSKDSTYSMSSTLTLTKDEYERHNSYTCEATHKTSTSPIVKSFNRNEC
notes: also called 15D8 IgG1; murine antibody 15D8
Kd [1]: 2.6 nM | koff [1]: 0.00033 s⁻¹ | kon [1]: 200000 M⁻¹ s⁻¹ | Kd [2]: 1.8 nM | koff [2]: 0.00018 s⁻¹ | kon [2]: 120000 M⁻¹ s⁻¹ | IC50 [3]: 15.4 nM
